Results taken from patent US20130331517A1, “Novel Polymer Derivative Of Cytidine Metabolic Antagonist” (NIPPON KAYAKU KABUSHIKI KAISHA, priority 2010, published 2013).

Legend:
[1] = test system: human lung cancer LC-11-JCK; assay: Anti-tumor activity test, human lung cancer LC-11-JCK transplanted subcutaneously in F344 nude rat; format: in vivo; conditions: for Relative ratio of tumor volume: F344 nude rat, day 23 after administration start, relative to no-treatment group (100.0); for Anti-tumor effects in comparison to 3′-ethynylcytidine as the control drug: maximum dose, when the change of the body weight was about 10% or less of the maximum decrease rate
Procedure: The human lung cancer LC-11-JCK which had been subcultured under the skin of a rat was made to a block of about 2 mm square, and transplanted subcutaneously into the dorsal part of F344 nude rat using an over-needle catheter. From day 13 after the tumor transplant, the polymer derivative of the present invention (Compound 5, Compound 10) was administered intravenously single time in the dose listed in Table 1. In addition, the control drug (3′-ethynylcytidine; ECyd) was administered subcutaneously by infusion over 24 hours using Alzet pump. Meanwhile, each compound was used as dissolved in 5% glucose solution. The administration was performed such that the dose when the change of the body weight was about 10% of the maximum decrease rate was taken as the maximum dose.
The tumor volume was measured on the start day of the administration and on day 23 after the administration start with vernier calipers for the major axis (L mm) and minor axis (W mm) of the tumor, and the tumor volume was calculated from (L×W^2)/2, and the relative ratio of the tumor volume with respect to the tumor volume of the no-treatment group (control) was listed in Table 1.

[2] = Medicament release of 3′-ethynylcytidine polymer derivative in the absence of enzyme (PBS, pH 7.4, 37° C.); format: physicochemical; conditions: 1 mg/mL, no hydrolysis enzyme
Procedure: Compound 5, Compound 10, Compound 15, Compound 21 and Compound 22, and PEG-Glu-ECyd in which 3′-ethynylcytidine derivative is bonded to a polyethylene glycol-polyglutamic acid block copolymer, and PEG-Glu-(ECyd, PheOBzl) in which 3′-ethynylcytidine and phenylalanine benzyl ester are bonded to a polyethylene glycol-polyglutamic acid block copolymer, which were manufactured by the method described in the pamphlet of WO 2006/120914 A as the comparative compounds, were dissolved in PBS solution (phosphate buffered saline; pH 7.4) at 1 mg/mL of the concentration, respectively, and incubated at 37° C. The 3′-ethynylcytidine released from each polymer derivative was quantified using HPLC. The ratio to the total amount of the medicament in the polymer derivative found out from the quantified value and the content of the medicament of the polymer derivative are indicated in FIGS. 1 to 3.

[3] = Particle size (RMS radius) and micelle formation in aqueous solution by dynamic and static light scattering; format: physicochemical; conditions: aqueous solution 1 mg/mL; for RMS radius by Gaussian distribution analysis (dynamic light scattering): volume weighting
Procedure: Hereinafter, the present invention will be further explained with Examples. However, the present invention is not limited to these Examples. Meanwhile, when the compound of the present invention forms particles such as a micelle in an aqueous solution in Examples, the size of the particles (particle size) is indicated with Gaussian distribution analysis by dynamic light scattering method or by static light scattering method as RMS radius. The former was measured with Zeta Potential/Particle sizer NICOMP™ 380ZLS (manufactured by Particle Sizing Systems), and the latter was measured with DAWN EOS™ (manufactured by Wyatt Technology), and calculated.

[4] = single intravenous administration, dose 6 mg/Kg in conversion to 3′-ethynylcytidine
[5] = single intravenous administration, dose 12 mg/Kg in conversion to 3′-ethynylcytidine

Compound	Relative ratio of tumor volume ([1]; subcutaneous infusion over 24 hours using Alzet pump, dose 6 mg/Kg)	Release of 3′-ethynylcytidine from the polymer derivative [2]	Release rate of 3′-ethynylcytidine relative to the comparative compounds [2]	Micelle formation in water [3]	RMS radius by static light scattering method [3]	RMS radius by Gaussian distribution analysis (dynamic light scattering) [3]	Release of 3′-ethynylcytidine relative to PEG-Glu-ECyd [2]	Relative ratio of tumor volume [1, 4]	Relative ratio of tumor volume [1, 5]	Anti-tumor effects in comparison to 3′-ethynylcytidine as the control drug [1]
C#C[C@@]1(O)[C@@H](CO)O[C@@H](n2ccc(N)nc2=O)[C@@H]1O [Control drug, 3′-ethynylcytidine, reference compound]	49.4	–	–	–	–	–	–	–	–	–
amide-bonded body of block copolymer including methoxy polyethylene-glycol structural moiety having 12,000 of the molecular weight and polyglutamic acid moiety having 21 of the polymerization number, to aspartic acid-1-adamantane methyl amide-4-(3′-ethynylcytidine)amide [Compound 15]	–	release 3′-ethynylcytidine despite the absence of a hydrolysis enzyme	equal to or more than that of the comparative compounds	formed a micelle in water	13 nm	20 nm	–	–	–	–
amide-bonded body of block copolymer including methoxy polyethylene-glycol structural moiety having 12,000 of the molecular weight and polyglutamic acid moiety having 21 of the polymerization number, to aspartic acid-1-butyl amide-4-(3′-ethynylcytidine)amide [Compound 10]	–	release 3′-ethynylcytidine despite the absence of a hydrolysis enzyme	equal to or more than that of the comparative compounds	did not form a micelle in water at this concentration	–	–	more rapidly than PEG-Glu-ECyd	46.7	26.4	strong anti-tumor effects
amide-bonded body of block copolymer including methoxy polyethylene-glycol structural moiety having 12,000 of the molecular weight and polyglutamic acid moiety having 21 of the polymerization number, to aspartic acid-1-phenylalanine-(4-phenylbutyl ester)-4-(3′-ethynylcytidine)amide [Compound 21]	–	release 3′-ethynylcytidine despite the absence of a hydrolysis enzyme	equal to or more than that of the comparative compounds	formed a micelle in water	40 nm	41 nm	–	–	–	–
amide-bonded body of block copolymer including methoxy polyethylene-glycol structural moiety having 12,000 of the molecular weight and polyglutamic acid moiety having 21 of the polymerization number, to aspartic acid-1-phenylbutyl amide-4-(3′-ethynylcytidine)amide [Compound 5]	–	release 3′-ethynylcytidine despite the absence of a hydrolysis enzyme	equal to or more than that of the comparative compounds	forms a micelle in water	11 nm	18 nm	more rapidly than PEG-Glu-ECyd	44.9	29.3	strong anti-tumor effects
amide-bonded body of block copolymer including two methoxy polyethylene glycol moieties having 5,000 of the molecular weight and polyglutamic acid moiety having 21 of the polymerization number, to aspartic acid-1-adamantane methyl amide-4-(3′-ethynylcytidine)amide [Compound 22]	–	release 3′-ethynylcytidine despite the absence of a hydrolysis enzyme	equal to or more than that of the comparative compounds	formed a micelle in water	8 nm	14 nm	–	–	–	–
